Test results as given in US20230331827A1, “POTASSIUM CHANNEL INHIBITORS” (priority 2017, published 2023).
Residue numbers refer to the chain shown, from its start. In names and notes the source's numbering stands.

B1: KB_A12_KTX (antibody)
VH: EVQLVESGGGLVRPGGSLRLSCAASGFTFSSYAMSWVRQAPGKGLEWVSAISGSGGSTYYADSVKGRFTISRDNTKNSLYLQMTSLRADDTAFYYCVKDFGPGYGTGWFDYWGPGTLVTVSS
VL: QSVLTQPPSVSEAPRQRVTITCSGSSSNIGNNAVNWYQQLPGKAPKLLIYAAGRGVEINVKCSGSPQCLKPCKDAGMRFGKCMNRKCHCTPKANSGVSDRFSAAKSGTSASLAINGLRSEDEADYYCAAWDDSLNGYVFGTGTKLTVLGQP
B2: KB_A07_HsTx1 (antibody, V domains shown)
VH: B1 VH
VL: NWYQQKPGKAPKLLIYAAGVASCRTPKDCADPCRKETGCPYGKCMNRKCKCNRCSRSGVPSRFSGSGSGTDFTLTISSLQPEDFATYYCQQGASPPYTFGQGTKVEIKR
B3: KB_A12_Odk2 short (antibody, V domains shown)
VH: B1 VH
VL: NWYQQLPGKAPKLLIYAAGRVKCRGSPQCIQPCKDAGMRFGKCMNGKCHCTPKANSGVSDRFSAAKSGTSASLAINGLRSEDEADYYCAAWDDSLNGYVFGTGTKLTVLG
B4: KB_A12_ADWX1 (antibody, V domains shown)
VH: B1 VH
VL: QSVLTQPPSVSEAPRQRVTITCSGSSSNIGNNAVNWYQQLPGKAPKLLIYAAGRVGINVKCKHSRQCLKPCKDAGMRFGKCTNGKCHCTPKANSGVSDRFSAAKSGTSASLAINGLRSEDEADYYCAAWDDSLNGYVFGTGTKLTVLG
B5: KB_A12_HsTx1 (antibody, V domains shown)
VH: B1 VH
VL: NWYQQLPGKAPKLLIYAAGRASCRTPKDCADPCRKETGCPYGKCMNRKCKCNRCANSGVSDRFSAAKSGTSASLAINGLRSEDEADYYCAAWDDSLNGYVFGTGTKLTVLG
B6: KB_A12_ADWX1 short (antibody, V domains shown)
VH: B1 VH
VL: B3 VL with R24K, G25H, P27R, I30L, Q31K, M44T
B7: KB_A12_Vm24 (antibody, V domains shown)
VH: B1 VH
VL: QSVLTQPPSVSEAPRQRVTITCSGSSSNIGNNAVNWYQQLPGKAPKLLIYAAGRAAAISCVGSPECPPKCRAQGCKNGKCMNRKCKCYYCANSGVSDRFSAAKSGTSASLAINGLRSEDEADYYCAAWDDSLNGYVFGTGTKLTVLG
B8: KB_A12_AnTx-N17A/F32T (antibody, V domains shown)
VH: B1 VH
VL: QSVLTQPPSVSEAPRQRVTITCSGSSSNIGNNAVNWYQQLPGKAPKLLIYAAGRQKECTGPQHCTNFCRKAKCTHGKCMNRKCKCTNCKANSGVSDRFSAAKSGTSASLAINGLRSEDEADYYCAAWDDSLNGYVFGTGTKLTVLG
B9: KB_A12_ShK (antibody, V domains shown)
VH: B1 VH
VL: NWYQQLPGKAPKLLIYAAGRRSCIDTIPKSRCTAFQCKHSMKYRLSFCRKTCGTCANSGVSDRFSAAKSGTSASLAINGLRSEDEADYYCAAWDDSLNGYVFGTGTKLTVLG
B10: KB_A12_Odk2 (antibody, V domains shown)
VH: B1 VH
VL: QSVLTQPPSVSEAPRQRVTITCSGSSSNIGNNAVNWYQQLPGKAPKLLIYAAGRGVPTDVKCRGSPQCIQPCKDAGMRFGKCMNGKCHCTPKANSGVSDRFSAAKSGTSASLAINGLRSEDEADYYCAAWDDSLNGYVFGTGTKLTVLG
B11: E09 (EET 5-3 KnotBody) (scFv, V domains shown)
VH: B1 VH
VL: AVNWYQQLPGKAPKLLIYAAGGCGPNGFCGSGSDGGVCPRILMRCKQDSDCLAGCGTQSGIPERFSGSKSGTSASLAISGLRSEDEADYYCAAWDDSLRAYVFGTGTQLTVLG
B12: E05 (EET 5-3 KnotBody) (scFv, V domains shown)
VH: B1 VH
VL: B11 VL with T57A, R82Q, D88H, R99N, A100G, Q108K, L109V
B13: C09 (EET 5-3 KnotBody) (scFv, V domains shown)
VH: B1 VH
VL: SEAPRQRVTITCGGKRCGPNGFCGSGSDGGVCPRILMRCKQDSDCLAGCTSNWYQQKPGQAPVLVVQDDSVRPSGIPERFSGSNSGNTATLTISRVEAGDGADYYCQVWDISSDLGVFGGGTKLTVLG
B14: E08 (EET 5-3 KnotBody) (scFv, V domains shown)
VH: B1 VH
VL: B11 VL with T57I, S97N, R99S, A100G, Q108K
B15: F07 (EET 5-3 KnotBody) (scFv, V domains shown)
VH: B1 VH
VL: B11 VL with T57G, I61V, E63D, G80R, R82Q, R99N, Q108K, L109V
B16: E01 (EET 5-3 KnotBody) (scFv, V domains shown)
VH: B1 VH
VL: B11 VL with T57I, Q58H, I61V, P62S, E63D, G67D, R82Q, R99N, A100G, Q108K
B17: F01 (EET 5-3 KnotBody) (scFv, V domains shown)
VH: B1 VH
VL: YLNWYQQKPGKAPKLLIDAAGECGPNGFCGSGSDGGVCPRINMRCKQDSDCLAGCGRDSGVPSRFSGSGSGTDFTLTISSLQPEDFATYYCQQSYSTPWTFGQGTKVEIKR
B18: E03 (EET 5-3 KnotBody) (scFv, V domains shown)
VH: B1 VH
VL: AVNWYQQLPGKAPKLLIYAAGGCGPNGFCGSGSDGGVCPRILMRCKQDSDCLAGCGRNSGIPERFSGSKSGHTATLTISRVEAGDEADYYCQVWDSSSDHVLFGGGTKLTVLG
B19: KB_A12_B-gal_E05 (scFv, V domains shown)
VH: B1 VH
VL: AVNWYQQLPGKAPKLLIYAAGRCRETSSLRRPCKQDSDCLAGCVCGPNGFCGANSGVSDRFSAAKSGTSASLAINGLRSEDEADYYCAAWDDSLNGYVFGTGTKLTVLG
B20: KB_A12_B-gal_F03 (scFv, V domains shown)
VH: B1 VH
VL: B19 VL with R24L, E25A, S27T, L29I, P32H
B21: KB_A12_B-gal_E04 (scFv, V domains shown)
VH: B1 VH
VL: B19 VL with R24L, E25A, S27T, L29I
B22: KB_A12_B-gal_F09 (scFv, V domains shown)
VH: B1 VH
VL: B19 VL with R24I, E25A, S28H, L29I, P32H
B23: KB_A12_B-gal_F11 (scFv, V domains shown)
VH: B1 VH
VL: B19 VL with R24H, S27A, S28Q, L29I, P32R
B24: KB_A12_B-gal_H03 (scFv, V domains shown)
VH: B1 VH
VL: B19 VL with R24N, E25Q, S27M, L29I
B25: KB_A12_B-gal_F07 (scFv, V domains shown)
VH: B1 VH
VL: B19 VL with E25T, S27A, S28N, L29V, P32H
B26: KB_A12_B-gal_F02 (scFv, V domains shown)
VH: B1 VH
VL: B19 VL with E25T, S28T, L29I, P32R
B27: KB_A12_B-gal_H02 (scFv, V domains shown)
VH: B1 VH
VL: B19 VL with R24E, E25Q, S28V, L29I, P32H
B28: KB_A12_B-gal_G05 (scFv, V domains shown)
VH: B1 VH
VL: B19 VL with R24L, E25D, S27V, S28N, P32R
B29: KB_A12_B-gal_H07 (scFv, V domains shown)
VH: B1 VH
VL: B19 VL with R24T, E25Q, S27A, S28L, L29I, P32R
B30: KB_A12_HsTx1 R14A (antibody, V domains shown)
VH: B1 VH
VL: B5 VL with R34A

target: human Kv1.3 (human) (UniProt P22001); assay: cell-based or functional assay
Sequence (P22001 whole entry): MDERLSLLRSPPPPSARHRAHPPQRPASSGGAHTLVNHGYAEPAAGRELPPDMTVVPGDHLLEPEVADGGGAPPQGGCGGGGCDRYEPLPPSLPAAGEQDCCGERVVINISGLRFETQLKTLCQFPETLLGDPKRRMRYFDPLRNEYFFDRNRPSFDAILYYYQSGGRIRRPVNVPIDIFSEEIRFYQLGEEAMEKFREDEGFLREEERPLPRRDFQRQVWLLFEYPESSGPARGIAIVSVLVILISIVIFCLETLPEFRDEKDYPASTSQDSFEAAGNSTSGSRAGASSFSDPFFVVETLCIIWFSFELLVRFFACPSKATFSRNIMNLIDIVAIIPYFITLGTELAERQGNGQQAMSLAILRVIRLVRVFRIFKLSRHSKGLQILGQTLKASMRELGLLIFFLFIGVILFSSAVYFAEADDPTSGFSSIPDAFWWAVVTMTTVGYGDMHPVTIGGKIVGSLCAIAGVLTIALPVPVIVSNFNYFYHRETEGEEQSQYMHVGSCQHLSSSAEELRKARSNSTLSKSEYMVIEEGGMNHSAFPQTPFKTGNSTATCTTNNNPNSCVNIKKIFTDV

First: B1
Second: B2
The IC50, huKv1.3 current, QPatch patch clamp of the first is 91-fold higher: 430 nM for the first, 4.7 nM for the second.

Compared with B3, B4 is 4.2-fold higher in IC50, huKv1.3 current, QPatch patch clamp: 64 nM for the first, 270 nM for the second.

Going from B5 to B6, the IC50, huKv1.3 current, QPatch patch clamp rises from 3.9 nM to 170 nM (44-fold).

Going from B7 to B8, the IC50, huKv1.3 current, QPatch patch clamp rises from 16 nM to 85 nM (5.3-fold).

First: B9
Second: B10
The IC50, huKv1.3 current, QPatch patch clamp of the first is 26-fold lower: 8.6 nM for the first, 222 nM for the second.

target: trypsin; assay: monoclonal phage ELISA on trypsin

First: B11
Second: B12
The ELISA signal of the first is lower: 70300 for the first, 119000 for the second.

First: B13
Second: B14
The ELISA signal of the first is lower: 9820 for the first, 121000 for the second.

Compared with B15, B16 is higher in ELISA signal: 72800 for the first, 128000 for the second.

Compared with B17, B18 is lower in ELISA signal: 102000 for the first, 82500 for the second.

target: β-galactosidase; assay: phage TRF on β-galactosidase
Sequence (P00722 2-1024): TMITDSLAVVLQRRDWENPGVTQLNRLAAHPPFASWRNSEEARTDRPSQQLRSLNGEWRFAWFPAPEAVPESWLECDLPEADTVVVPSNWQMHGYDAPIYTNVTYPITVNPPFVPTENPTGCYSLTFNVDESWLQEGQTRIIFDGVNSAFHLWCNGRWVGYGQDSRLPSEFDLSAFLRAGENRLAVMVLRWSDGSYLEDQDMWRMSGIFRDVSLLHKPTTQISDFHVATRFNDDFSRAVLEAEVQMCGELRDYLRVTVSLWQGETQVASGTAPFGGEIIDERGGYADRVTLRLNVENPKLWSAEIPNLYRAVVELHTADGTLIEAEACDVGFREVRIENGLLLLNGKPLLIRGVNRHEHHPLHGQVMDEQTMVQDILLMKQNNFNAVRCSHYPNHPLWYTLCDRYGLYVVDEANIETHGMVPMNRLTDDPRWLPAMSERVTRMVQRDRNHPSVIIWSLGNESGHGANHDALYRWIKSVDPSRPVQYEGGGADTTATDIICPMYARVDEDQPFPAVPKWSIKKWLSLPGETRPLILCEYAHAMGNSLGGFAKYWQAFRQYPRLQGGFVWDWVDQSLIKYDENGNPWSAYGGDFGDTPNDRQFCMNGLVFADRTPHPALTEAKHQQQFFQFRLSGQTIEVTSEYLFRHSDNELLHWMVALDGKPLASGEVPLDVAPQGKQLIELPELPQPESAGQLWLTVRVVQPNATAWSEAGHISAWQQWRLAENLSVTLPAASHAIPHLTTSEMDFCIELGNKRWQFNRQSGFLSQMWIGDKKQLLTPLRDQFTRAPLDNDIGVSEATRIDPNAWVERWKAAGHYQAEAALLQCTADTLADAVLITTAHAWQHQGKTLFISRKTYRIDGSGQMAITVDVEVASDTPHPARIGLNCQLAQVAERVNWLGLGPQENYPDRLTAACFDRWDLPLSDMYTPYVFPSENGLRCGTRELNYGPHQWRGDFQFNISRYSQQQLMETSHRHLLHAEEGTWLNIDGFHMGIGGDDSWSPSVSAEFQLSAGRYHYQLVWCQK

First: B19
Second: B20
The TRF signal of the first is higher: 312000 for the first, 289000 for the second.

First: B21
Second: B22
The TRF signal of the first is higher: 523000 for the first, 258000 for the second.

Compared with B23, B24 is lower in TRF signal: 531000 for the first, 518000 for the second.

Going from B25 to B26, the TRF signal rises from 246000 to 476000.

Compared with B27, B28 is higher in TRF signal: 501000 for the first, 529000 for the second.

Binder B29 has a TRF signal of 62000.

target: human Kv1.3 (human) (UniProt P22001); assay: cell-based or functional assay; remark: another data set of the same source

Going from B1 to B3, the Fold difference (Kv1.1 IC50 against Kv1.3 IC50) rises from 3 fold to 8 fold.

Going from B5 to B30, the Fold difference (Kv1.1 IC50 against Kv1.3 IC50) rises from 43 fold to greater than 3500 fold.

Going from B6 to B7, the Fold difference (Kv1.1 IC50 against Kv1.3 IC50) rises from 6 fold to 102 fold.

Compared with B8, B9 is lower in Fold difference (Kv1.1 IC50 against Kv1.3 IC50): 94 fold for the first, 3 fold for the second.

Binder B10 has a Fold difference (Kv1.1 IC50 against Kv1.3 IC50) of 6 fold.

First: B1
Second: B9
The IC50, huKv1.3 current, QPatch patch clamp of the first is higher: greater than 10000 nM for the first, 20 nM for the second.

Going from B1 to B3, the Kv1.3 IC50, QPatch patch clamp falls from 1540 nM to 49 nM (31-fold).

Compared with B5, B30 is 17-fold lower in Kv1.3 IC50, QPatch patch clamp: 15 nM for the first, 0.9 nM for the second.

Compared with B6, B7 is 21-fold lower in Kv1.3 IC50, QPatch patch clamp: 251 nM for the first, 12 nM for the second.

Going from B8 to B9, the Kv1.3 IC50, QPatch patch clamp falls from 110 nM to 13 nM (8.5-fold).

Binder B10 has a Kv1.3 IC50, QPatch patch clamp of 457 nM.

target: human Kv1.1 (human) (UniProt Q09470); assay: cell-based or functional assay
Sequence (Q09470 whole entry): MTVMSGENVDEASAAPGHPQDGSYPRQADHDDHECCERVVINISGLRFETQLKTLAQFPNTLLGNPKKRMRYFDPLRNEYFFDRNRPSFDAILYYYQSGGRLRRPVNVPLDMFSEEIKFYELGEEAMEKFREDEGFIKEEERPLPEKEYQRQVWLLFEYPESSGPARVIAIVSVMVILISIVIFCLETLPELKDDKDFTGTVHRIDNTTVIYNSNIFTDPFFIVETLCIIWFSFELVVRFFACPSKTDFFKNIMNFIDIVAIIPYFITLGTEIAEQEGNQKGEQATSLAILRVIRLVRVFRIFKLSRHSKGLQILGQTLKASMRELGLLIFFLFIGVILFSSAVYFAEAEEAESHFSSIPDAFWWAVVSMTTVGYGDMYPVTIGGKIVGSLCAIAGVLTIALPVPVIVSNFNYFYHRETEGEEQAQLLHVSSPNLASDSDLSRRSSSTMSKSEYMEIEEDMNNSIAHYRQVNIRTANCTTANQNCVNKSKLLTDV

First: B1
Second: B3
The Kv1.1 IC50, QPatch patch clamp of the first is 13-fold higher: 4800 nM for the first, 380 nM for the second.

Compared with B5, B30 is 4.6-fold higher in Kv1.1 IC50, QPatch patch clamp: 650 nM for the first, 2990 nM for the second.

B6 and B7 are within 1.5-fold of each other in Kv1.1 IC50, QPatch patch clamp: 1400 nM for the first, 1220 nM for the second.

Going from B8 to B9, the Kv1.1 IC50, QPatch patch clamp falls from 10300 nM to 40 nM (260-fold).

B10 showed a Kv1.1 IC50, QPatch patch clamp of 2750 nM.
